In one test the target is T1, 4H1454-AA.
T1 chain: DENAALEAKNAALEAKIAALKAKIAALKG
Briefly: two-hybrid library CCmax.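 Further: natural log of median RNA to DNA barcode read ratio; higher means stronger binding.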

Another test deals with T2, 4H1558-AA.
T2 chain: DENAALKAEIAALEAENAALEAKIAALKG
Briefly: two-hybrid library CCmax.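 Further: natural log of median RNA to DNA barcode read ratio; higher means stronger binding.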 The following applies: mean of both orientations.

For another test, the target named is T3, 4H1913-AA.
T3 chain: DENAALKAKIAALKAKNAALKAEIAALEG
The test is described as follows: two-hybrid library CCmax.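 Further: natural log of median RNA to DNA barcode read ratio; higher means stronger binding.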 The following applies: mean of both orientations.

A further test has as its target T4, 4H249-AA.
T4 chain: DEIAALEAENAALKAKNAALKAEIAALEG
Briefly: two-hybrid library CCmax.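 Further: natural log of median RNA to DNA barcode read ratio; higher means stronger binding.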 Conditions: mean of both orientations.

The next test has as its target T5, 4H2580-AA.
T5 chain: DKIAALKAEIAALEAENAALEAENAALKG
Briefly: two-hybrid library CCmax. The following applies: mean of both orientations.

A further test has as its target T6, 4H2621-AA.
T6 chain: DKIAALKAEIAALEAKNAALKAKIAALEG
Briefly: two-hybrid library CCmax. Conditions: mean of both orientations.

A further test addresses T7, 4H2699-AA.
T7 chain: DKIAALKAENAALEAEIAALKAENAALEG
Briefly: two-hybrid library CCmax. Conditions: mean of both orientations.

Another test has as its target T8, 4H2728-AA.
T8 chain: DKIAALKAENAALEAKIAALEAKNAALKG
Briefly: two-hybrid library CCmax. The following applies: mean of both orientations.

The target in another test is T9, 4H2774-AA.
T9 chain: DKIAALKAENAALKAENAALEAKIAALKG
Briefly: two-hybrid library CCmax. The following applies: mean of both orientations.

For the next test, the target named is T10, 4H2903-AA.
T10 chain: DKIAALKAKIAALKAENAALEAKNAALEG
Briefly: two-hybrid library CCmax. The following applies: mean of both orientations.

The next test addresses T11, 4H2961-AA.
T11 chain: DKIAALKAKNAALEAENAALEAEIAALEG
Briefly: two-hybrid library CCmax. Conditions: mean of both orientations.

The target in another test is T12, 4H3049-AA.
T12 chain: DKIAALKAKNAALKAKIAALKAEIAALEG
The test is described as follows: two-hybrid library CCmax. The following applies: mean of both orientations.

In the next test the target is T13, 4H3129-AA.
T13 chain: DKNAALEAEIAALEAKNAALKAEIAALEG
Briefly: two-hybrid library CCmax. Conditions: mean of both orientations.

The next test concerns the target T14, 4H341-AA.
T14 chain: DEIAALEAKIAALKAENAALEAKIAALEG
Briefly: two-hybrid library CCmax. The following applies: mean of both orientations.

The target in the next test is T15, 4H3414-AA.
T15 chain: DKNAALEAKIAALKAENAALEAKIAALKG
Briefly: two-hybrid library CCmax. The following applies: mean of both orientations.

The target in another test is T16, 4H3595-AA.
T16 chain: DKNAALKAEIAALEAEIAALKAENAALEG
The test is described as follows: two-hybrid library CCmax. The following applies: mean of both orientations.

The next test concerns the target T17, 4H3629-AA.
T17 chain: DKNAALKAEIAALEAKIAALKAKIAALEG
Briefly: two-hybrid library CCmax. The following applies: mean of both orientations.

The target of another test is T18, 4H3782-AA.
T18 chain: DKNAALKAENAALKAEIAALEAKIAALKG
Briefly: two-hybrid library CCmax. The following applies: mean of both orientations.

A further test addresses T19, 4H380-AA.
T19 chain: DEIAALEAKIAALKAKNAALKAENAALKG
The test is described as follows: two-hybrid library CCmax. Conditions: mean of both orientations.

The next test addresses T20, 4H3939-AA.
T20 chain: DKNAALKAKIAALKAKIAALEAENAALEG
Briefly: two-hybrid library CCmax. Conditions: mean of both orientations.

For the next test, the target named is T21, 4H3969-AA.
T21 chain: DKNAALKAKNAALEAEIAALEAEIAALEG
Briefly: two-hybrid library CCmax. The following applies: mean of both orientations.

The target in the next test is T22, 4H446-AA.
T22 chain: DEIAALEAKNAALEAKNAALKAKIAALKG
Briefly: two-hybrid library CCmax. Conditions: mean of both orientations.

Another test addresses T23, 4H464-AA.
T23 chain: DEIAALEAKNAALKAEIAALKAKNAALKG
The test is described as follows: two-hybrid library CCmax. Conditions: mean of both orientations.

The target in a further test is T24, 4H483-AA.
T24 chain: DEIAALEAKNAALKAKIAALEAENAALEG
Briefly: two-hybrid library CCmax. The following applies: mean of both orientations.

A further test concerns the target T25, 4H63-AA.
T25 chain: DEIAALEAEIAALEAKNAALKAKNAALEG
Briefly: two-hybrid library CCmax. Conditions: mean of both orientations.

The next test deals with T26, 4H2588-bH.
T26 chain: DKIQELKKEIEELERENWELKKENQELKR
The test is described as follows: two-hybrid library CCNG1.

In another test the target is T27, 4H2692-bH.
T27 chain: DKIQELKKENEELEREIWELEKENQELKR
Briefly: two-hybrid library CCNG1.

The target of a further test is T28, 4H2717-bH.
T28 chain: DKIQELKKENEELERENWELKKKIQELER
Briefly: two-hybrid library CCNG1.

Another test has as its target T29, 4H2839-bH.
T29 chain: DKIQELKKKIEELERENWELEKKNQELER
Briefly: two-hybrid library CCNG1.

The target in another test is T30, 4H2915-bH.
T30 chain: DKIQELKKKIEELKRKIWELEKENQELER
Briefly: two-hybrid library CCNG1.

The target of a further test is T31, 4H3057-bH.
T31 chain: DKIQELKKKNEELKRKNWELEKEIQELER
Briefly: two-hybrid library CCNG1.

Another test has as its target T32, 4H319-bH.
T32 chain: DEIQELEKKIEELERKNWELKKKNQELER
The test is described as follows: two-hybrid library CCNG1.

The next test addresses T33, 4H3277-bH.
T33 chain: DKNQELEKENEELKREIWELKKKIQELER
Briefly: two-hybrid library CCNG1.

In the next test the target is T34, 4H338-bA.
T34 chain: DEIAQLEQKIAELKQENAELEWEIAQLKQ
Briefly: two-hybrid library CCNG1.

The target in a further test is T35, 4H40-bH.
T35 chain: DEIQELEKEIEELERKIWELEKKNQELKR
Briefly: two-hybrid library CCNG1.

A further test addresses T36, 4H477-bH.
T36 chain: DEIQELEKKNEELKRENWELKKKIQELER
The test is described as follows: two-hybrid library CCNG1.

In a further test the target is T37, 4H492-bH.
T37 chain: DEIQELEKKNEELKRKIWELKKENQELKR
Briefly: two-hybrid library CCNG1.

For another test, the target named is T38, 4H741-bH.
T38 chain: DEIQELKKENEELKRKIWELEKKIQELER
The test is described as follows: two-hybrid library CCNG1.

A further test has as its target T39, P7SH.
T39 chain: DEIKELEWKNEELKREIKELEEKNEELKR
Briefly: two-hybrid library CCNG1.

A further test concerns the target T40, 4H2438-bH.
T40 chain: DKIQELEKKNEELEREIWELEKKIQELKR
Briefly: two-hybrid library CCNG1.

In a further test the target is T41, 4H2473-bH.
T41 chain: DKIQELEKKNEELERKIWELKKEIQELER
Briefly: two-hybrid library CCNG1.

The target in another test is T42, 4H2503-bH.
T42 chain: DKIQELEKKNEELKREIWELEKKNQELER
Briefly: two-hybrid library CCNG1.

The target in another test is T43, 4H348-bH.
T43 chain: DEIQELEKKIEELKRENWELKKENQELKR
The test is described as follows: two-hybrid library CCNG1.

Here are results for three molecules from publication PMC10397247.

On to DENAALEAKNAALEAKIAALKAKIAALKG [4H1454-AA], for which the interaction score with 4H1454-AA is -1.09; with 4H1558-AA, -0.946; in the test with 4H1913-AA, -1.24; with 4H249-AA it was -1.11; with 4H2580-AA, -0.961; with 4H2621-AA, -0.876. Moreover, the interaction score was -0.894 in the test with 4H2699-AA; -1.37 in the test with 4H2728-AA; -1.09 with 4H2774-AA; -1.74 with 4H2903-AA; 1.04 in the test with 4H2961-AA; 0.754 with 4H3049-AA. The interaction score with 4H3129-AA is -1.84; with 4H341-AA, -1.24; with 4H3414-AA, -1.31; with 4H3595-AA it was 0.813; with 4H3629-AA, -1.38; in the test with 4H3782-AA it was 0.615. Moreover, the interaction score with 4H380-AA is -1.14; with 4H3939-AA it was -1.25; with 4H3969-AA it was 2.05; in the test with 4H446-AA it was -1.96; in the test with 4H464-AA it was -1.48; in the test with 4H483-AA, -0.924. Further, the interaction score with 4H63-AA is -0.402.

With DKIQELKKEIEELERENWELKKENQELKR [4H2588-bH], the interaction score with 4H2588-bH was 0.98; with 4H2692-bH, 0.605; with 4H2717-bH, -0.116; with 4H2839-bH, 1.07; with 4H2915-bH, 1.07; in the test with 4H3057-bH it was 0.192. Further, the interaction score in the test with 4H319-bH was 0.617; with 4H3277-bH, -0.69; with 4H338-bA, 0.393; in the test with 4H40-bH, -0.884; in the test with 4H477-bH it was -0.292; in the test with 4H492-bH it was -1.5. The interaction score was 0.417 with 4H741-bH and -0.241 in the test with P7SH.

As to DKIQELEKKNEELEREIWELEKKIQELKR [4H2438-bH], the interaction score with 4H2438-bH was -0.05; with 4H2473-bH it was 1.01; with 4H2503-bH it was 0.644; in the test with 4H2588-bH, -0.0625; with 4H2692-bH, 0.322; with 4H2717-bH, 0.187. Further, the interaction score in the test with 4H2839-bH was 0.0743; with 4H2915-bH it was 1.73; with 4H3057-bH, 1.41; in the test with 4H319-bH, -1.85; with 4H3277-bH, -0.355; with 4H348-bH, -0.861. Besides, the interaction score with 4H40-bH was -0.00537; with 4H477-bH, 0.358; with 4H492-bH, -0.644; with 4H741-bH, -0.318.
